Test results reported in US20100240066A1 (MCGILL UNIVERSITY, published 2010).
Where no end group is shown, it is not given here.

T1: N-cadherin/Fc chimeric protein (human, UniProt P19022 160-724)
T1 construct: range 160-724; Bought from R&D Systems; also called N-cad/Fc; human N-cadherin/Fc chimeric protein; not shown: Fc region of human IgG1
T1 sequence (looked up): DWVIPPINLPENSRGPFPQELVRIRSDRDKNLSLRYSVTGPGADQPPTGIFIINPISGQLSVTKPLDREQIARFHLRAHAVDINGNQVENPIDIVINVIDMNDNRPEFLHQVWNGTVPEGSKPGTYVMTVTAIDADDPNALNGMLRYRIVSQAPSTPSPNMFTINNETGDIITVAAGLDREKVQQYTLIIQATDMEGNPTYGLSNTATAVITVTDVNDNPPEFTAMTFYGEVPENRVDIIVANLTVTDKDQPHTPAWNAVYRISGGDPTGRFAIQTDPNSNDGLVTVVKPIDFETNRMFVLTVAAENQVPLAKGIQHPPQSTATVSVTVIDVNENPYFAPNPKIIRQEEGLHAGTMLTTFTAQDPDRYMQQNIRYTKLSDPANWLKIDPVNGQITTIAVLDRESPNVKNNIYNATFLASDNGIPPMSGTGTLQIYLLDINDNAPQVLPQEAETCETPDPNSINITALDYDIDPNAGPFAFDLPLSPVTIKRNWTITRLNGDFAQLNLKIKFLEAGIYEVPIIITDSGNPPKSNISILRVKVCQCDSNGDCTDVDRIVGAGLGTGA

T2: VE-cadherin/Fc chimeric protein (UniProt P33151 48-593)
T2 construct: Bought from R&D Systems; also called vascular endothelial (VE)-cadherin/Fc chimeric protein; not shown: Fc part not described
T2 sequence (looked up): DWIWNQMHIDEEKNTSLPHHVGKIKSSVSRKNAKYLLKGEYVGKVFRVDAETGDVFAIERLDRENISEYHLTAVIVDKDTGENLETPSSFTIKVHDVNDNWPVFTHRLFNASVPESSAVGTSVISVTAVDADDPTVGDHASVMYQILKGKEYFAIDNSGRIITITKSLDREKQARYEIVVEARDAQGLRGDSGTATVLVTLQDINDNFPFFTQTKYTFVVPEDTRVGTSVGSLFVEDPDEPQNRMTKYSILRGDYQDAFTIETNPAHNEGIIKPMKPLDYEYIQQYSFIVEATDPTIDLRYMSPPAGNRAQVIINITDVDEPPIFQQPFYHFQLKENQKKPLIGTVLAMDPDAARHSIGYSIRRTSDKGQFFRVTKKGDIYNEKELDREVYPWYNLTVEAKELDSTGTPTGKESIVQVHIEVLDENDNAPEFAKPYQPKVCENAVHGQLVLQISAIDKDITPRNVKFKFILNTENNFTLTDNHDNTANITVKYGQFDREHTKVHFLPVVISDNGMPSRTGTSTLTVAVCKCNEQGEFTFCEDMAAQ

T3: E-cadherin/Fc chimeric protein (human, UniProt P12830 155-707)
T3 construct: range 155-707; Bought from R&D Systems; also called E-cad/Fc; human E-cadherin/Fc chimeric protein; not shown: Fc region of human IgG1
T3 sequence (looked up): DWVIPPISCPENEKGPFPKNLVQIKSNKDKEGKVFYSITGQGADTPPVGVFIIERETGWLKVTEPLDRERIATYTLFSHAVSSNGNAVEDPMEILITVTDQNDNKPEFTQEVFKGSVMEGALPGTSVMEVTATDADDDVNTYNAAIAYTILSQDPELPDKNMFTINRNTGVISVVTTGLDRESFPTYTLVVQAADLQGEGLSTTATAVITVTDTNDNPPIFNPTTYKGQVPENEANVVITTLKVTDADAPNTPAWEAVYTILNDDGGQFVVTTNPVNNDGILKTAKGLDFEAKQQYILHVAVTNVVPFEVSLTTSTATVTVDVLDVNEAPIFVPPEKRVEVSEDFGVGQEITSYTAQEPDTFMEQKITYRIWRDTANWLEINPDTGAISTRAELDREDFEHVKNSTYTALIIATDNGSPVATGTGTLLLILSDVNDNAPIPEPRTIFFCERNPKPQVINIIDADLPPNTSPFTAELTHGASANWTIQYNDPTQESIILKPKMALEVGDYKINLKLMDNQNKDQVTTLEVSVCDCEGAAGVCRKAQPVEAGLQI


Assays:
Test in all cases: phage ELISA
[1] = biological target: T1, N-cadherin/Fc chimeric protein
Experimental: (§1) The binding of each clone to the cadherin/Fc chimeric proteins was confirmed by ELISA. Wells of ProBind microtiter plates (Falcon) were coated with either N-cadherin/Fc or E-cadherin/Fc chimeric protein (100 ng/well) or human IgG1 (which contains the Fc fragment) (100 ng/well). After blocking the nonspecific sites with TBS containing 3% BSA and 1.2 mM CaCl₂ for 1 h at 37° C., phage clones (10⁹ pfu) diluted in TBST containing 3% BSA and 1.2 mM CaCl₂ (100 μl/well). Non-coated wells were also used to exclude any phage that bound to the plastic surface. After 1 h incubation at room temperature, wells were washed 3 times with TBST containing 3% BSA and 1.2 mM CaCl₂. M13 phage without any insert were used to control the non-specific binding of the phage itself to the target. Monoclonal anti-M13 antibody conjugated to horseradish peroxidase (Amersham Biosciences, Piscataway, N.J.) was diluted in TBST containing 3% BSA and 1.2 mM CaCl₂ (1:2,000) and added to each well (100 μl/well). After 1 h incubation at room temperature, wells were washed three times with TBST containing 3% BSA and 1.2 mM CaCl₂ and once with TBS containing 1.2 mM CaCl₂. Horseradish peroxidase substrate, TMB (Sigma), was added to each well (100 μl/well and after color development the reaction was stopped by addition of 100 μl 0.5 M sulphuric acid to each well. The intensity of the color was measured at 450 nm.
(§2) The phage clones shown to bind to the N-cadherin/Fc chimeric protein by ELISA were also evaluated for their ability to bind to E-cadherin/Fc and VE-cadherin/Fc chimeric proteins. The phage clones shown to bind to the E-cadherin/Fc chimeric protein by ELISA were also evaluated for their ability to bind to N-cadherin/Fc and VE-cadherin/Fc chimeric proteins. The same ELISA protocol described in the previous section was used to perform this evaluation with the exception that the wells were coated with either 100 ng N-cadherin/Fc, E-cadherin/Fc or VE-cadherin/Fc chimeric protein (R&D Systems, Minneapolis, Minn.).

[2] = biological target: T2, VE-cadherin/Fc chimeric protein
Experimental: as §1, §2

[3] = biological target: T3, E-cadherin/Fc chimeric protein
Experimental: as §1, §2

Binder	binding result [1]	binding result [2]	binding result [3]
QWQLHWPASKQA (whole phage in the assay) [phage clone Ec 12-11]	binds	no binding (tested: 10^9 pfu)	binds
SWEWYIPYLNRT (whole phage in the assay) [phage clone Ec 12-a11]	binds	no binding (tested: 10^9 pfu)	binds
QWTITYPKPPAL (whole phage in the assay; also called QWTITYPKPPAL) [phage clone Ec 12-13]	binds	no binding (tested: 10^9 pfu)	binds
WQFCYAQHC (not fully specified; cysteine pairing not given here; also: displayed on M13 phage pIII, whole phage in the assay) [phage clone Ec 2]	binds	no binding (tested: 10^9 pfu)	binds
QWEIRYPWPSMG (whole phage in the assay) [phage clone Ec 12-a1]	binds	no binding (tested: 10^9 pfu)	binds
QWEWHYMAGYLA (whole phage in the assay) [phage clone Ec 12-15]	binds	no binding (tested: 10^9 pfu)	binds
EWQYHWPTLQSR (whole phage in the assay) [phage clone Ec 12-22]	binds	no binding (tested: 10^9 pfu)	binds
SWELYYPLRANL (whole phage in the assay) [phage clone Ec 12-a2]	binds	no binding (tested: 10^9 pfu)	binds
SWTWHFPESPPP (whole phage in the assay) [phage clone Ec 12-01]	binds	no binding (tested: 10^9 pfu)	binds
QWTYYLPLTPRW (whole phage in the assay) [phage clone Ec 12-a4]	binds	no binding (tested: 10^9 pfu)	binds
EWTWVFPTTHTS (whole phage in the assay) [phage clone Ec 12-07]	binds	no binding (tested: 10^9 pfu)	binds
EWFWSWPGYSNT (whole phage in the assay) [phage clone Ec 12-a13]	binds	no binding (tested: 10^9 pfu)	binds
WTFNFCTAC (not fully specified; cysteine pairing not given here; also: displayed on M13 phage pIII, whole phage in the assay) [phage clone Ec a5]	binds	no binding (tested: 10^9 pfu)	binds
WQWCFKATC (not fully specified; cysteine pairing not given here; also: displayed on M13 phage pIII, whole phage in the assay) [phage clone Ec 21]	binds	no binding (tested: 10^9 pfu)	binds
GWTVFYPDNLRP (whole phage in the assay) [phage clone Ec 12-18]	binds	no binding (tested: 10^9 pfu)	binds
AWTWSLPTLPQS (whole phage in the assay) [phage clone Ec 12-a5]	binds	no binding (tested: 10^9 pfu)	binds
EWTYTFPTAHSI (whole phage in the assay) [phage clone Ec 12-a18]	binds	no binding (tested: 10^9 pfu)	binds
SWTFYWPDAQLG (whole phage in the assay) [phage clone Ec 12-06]	binds	no binding (tested: 10^9 pfu)	binds
WTMCYPDTC (not fully specified; cysteine pairing not given here; also: displayed on M13 phage pIII, whole phage in the assay) [phage clone Ec 7]	binds	no binding (tested: 10^9 pfu)	binds
EWTFQWNSYPAD (whole phage in the assay) [phage clone Ec 12-10]	binds	no binding (tested: 10^9 pfu)	binds
WQMVLCPAC (not fully specified; cysteine pairing not given here; also: displayed on M13 phage pIII, whole phage in the assay) [phage clone Ec 4]	binds	no binding (tested: 10^9 pfu)	binds
WELVQCLTC (not fully specified; cysteine pairing not given here, whole phage in the assay) [phage clone Ec 1]	binds	no binding (tested: 10^9 pfu)	binds
EWDFFWPPTQTP (whole phage in the assay) [phage clone Ec 12-19]	binds	no binding (tested: 10^9 pfu)	binds
